The values that follow come from the RNAGym collection of RNA variant scans (doi:10.1073/pnas.2313332121).

B1: TPR 5TU (parent)
chain: GGAUCUUCUCGAUCUAACAAAAAAGACAAAUCUGCCACAAAGCUUGAGAGCAUCUUCGGAUGCAGAGGCGGCAGCCUUCGGUGGCGCGAUAGCGCCAACGUUCUCAACUAUGACACGCAAAACGCGUGCUCCGUUGAAUGGAGUUUAUCAUG

This sample holds only a part of the variants without activity.

Variants of B1 are the subject of this series. The series is described as follows: polymerase ribozyme fitness, log enrichment relative to wild type (log ratio); higher = more active; in vitro selection for triplet polymerase activity. Summed up: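 Fitness compares each genotype's enrichment to that of the wild type on a logarithmic scale, averaging replicates with inverse-variance weights. The logarithm is base 2. Enrichment came from Illumina sequencing of input and output libraries after one triplicate round of in vitro selection, which included frozen incubation at −7 °C, of PCR-built, transcribed mutant libraries of each subunit of a heterodimeric triplet polymerase ribozyme. Only genotypes with ≥10 input reads and ≥1 read per output were kept.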
For GGAUUUUCUCGAUCUAACAAAAAAGACAAAUCUGCCACAAAGCUUGAGAGCAUCUUCGGAUGCAGAGGCGGCAGCCUUCGGUGGCGCGAUAGGGCCAACGUUCUCAACUAUGACACGCAAAACGCGUGCUCCGUUGAAUGGAGUUUAUCAUG [C5U C93G], the “polymerase ribozyme fitness (log ratio)” value is -3.16.
As for GGAUUUUCUCGAUCUAACAAAAAAGACAAAUCUGCCACAAAGCUUGAGAGCAUCUUCGGAUGCAGAGGCGGCAGCCUUCGGUGGCGCGAUAGUGCCAACGUUCUCAACUAUGACACGCAAAACGCGUGCUCCGUUGAAUGGAGUUUAUCAUG [C5U C93U], the “polymerase ribozyme fitness (log ratio)” value is 0.375.
To GGAUGUUCUCGAUCUAACAAAAAAGACAAAUCUGCCACAAAGCUUGAGAGCAACUACGGAUGCAGAGCCGGCAGCCUUCGGUGGCGCGAUAGCACCAACGUUCUCAACUAUGACACGUAAAACGCGUGCUCCGUUGAAUGGAGUUUAACCUG [C5G U53A U56A G68C G94A C118U U148A A150C] belongs ≤ -4.2; to GGAUUUUCUCGAUCUCUCAAAAAAGAUAAAUCUGCCACAAAGCUUGAGCGCAUCGUCGGAUGCAGAGGCGGCAGCCUUCGGUGGCGCGAUAGCGCCAACGUUCUCAACUAUGACACGCAAAACGCGUGCUCCGUUGAAUGGAGUUUAUCAUG [C5U A16C A17U C27U A49C U55G], ≤ -4.2; to GGAUUUUCUCGAUCUAACAAAAAAGACAAAUCUGCCACAAAGCUUGAGAGCAUCUUCGGAUGCAGAGGCGGCAGCCUUCGGUGGCGCGAUAGCGCCAACGUUCUCAACUAUGACACGCAAAACGCGUGCUCCGUUGAAUGGUGUUUAUCAUG [C5U A142U], -0.885.
In the case of GGAUUUUCUCGAUCUAACAAAUAAGACAAAUCUGCCACAAAGCUUGAGAGCAUCUUCGGAUGCAGAGGCGGCAGCCUUCGGUGGAGCGAUAGCGCCAACGUUCUCAACUAUGACACGCAAAACGCGUGCUCCGUAGAAUGGAGUUUAUCAUG [C5U A22U C85A U135A], the “polymerase ribozyme fitness (log ratio)” value is -0.0168.
To GGAUUUUCUCGAUCUAACAAAAAAGACAAAUCUGCCACAAAGCUUGAGAGCAUCUUCGGAUGCAGAGGCGGCAGCCUUCGGUGGCGCGAUAGCGCCAACGUUCUCAACUAUGACACGCAAGACGCGUGCUCCGUUGAAUGGAGUUUAUCAUG [C5U A121G] belongs 0.614.
As to GGAUUUUCUCGAUCUAGCAAAAAAGACAAAUCUGCCACAAAGCUUGAGGGCAGCUUCGGAUGCAGAGGCGGCAGCCUUCGGUGGAGCGAUAGCGCCAACGUUCUCAACUAUGACACGCAAACCGCGUGCUCCGUUGAAUGCAGUUUAUCAUG [C5U A17G A49G U53G C85A A122C G141C], the “polymerase ribozyme fitness (log ratio)” value is ≤ -4.2.
With GGAUUUUCUCGAUCUCACAAAAAAGACAAAUCUGCCACAAAGCUUGAGAGCAUCUUCGGAUGCAGAGGCGGCAGCCUUCGAAGGCGCGAUAGCGCCAACGUUCUCAACUAUGACACGCAAAACGCCUGCUCCGUUGAAUGGAGUUUAUCAUG [C5U A16C G81A U82A G126C], the “polymerase ribozyme fitness (log ratio)” value was -0.899.
As for GGAUUUUCUCGAUCUAACAAAAAAGACAAAUCUGCCACAAAGCUUGAGAGCAUCUUCGGAUGCAGGGGCGGCAGCCUUCGGUGGCGUGAUAGCGCCAACGUUCUCAACUAUGACACGCAAAACGCGUGCUCCGUUGAAUGGAGUUUAUCAUG [C5U A66G C87U], the “polymerase ribozyme fitness (log ratio)” value is ≤ -4.2.
The result for GGAUUUUCUCGAUCUAACAAAAAAGACAAAUCUGCCACAAAGCUUGAGAGCAUCUUCGGAUGCAGAGGCGGCAGCCUUCGGUGGGGCGAUAGCGCCAACGUUCUCAACUAUGACACGCAAAACGCGUGCUCCGUUGAAUGGAGUUUAUCAUG [C5U C85G] reads -1.7; that for GGAUUUUCUCGAUCUAACAAAAAAGACAAAUCUGCCACAAAGCUUGGGAGCAUCUUCGGAUGCAGAGGCGGCAGCCUUAGGUGGCGCGAUAGCGCCAACGUUCUCAACUAUGACACGCAAAACGCGUGCUCCGUUGAGUGGAGUUUAUCAUG [C5U A47G C79A A138G], ≤ -4.2; that for GGAUUUUCUCGAUCUAACAAAAAAGACAAAUCUGCCACAAAGCUUGAGAGCAUCUUCGGAUGCAGAGGCGGCAGCCUUCGGUGGCGCGAUUGCGCCAACGUUCUCAACUAUGACACGCAAAACGCGUGCUCCGUUGAAUGGAGUUUAUCAUG [C5U A91U], -3.99.
For GGAUUUUCUCGAUCUAACAAAAAAGACAAAUCUGCCACAAAGCUUGCGAGCAUCUUCGAAUGCAGAGGCGGCAGCCUUCGGUGGCGUGAUAGUGCCAACGUUCUCAACUAUGACACGCAAAACGCGUGCUCCGUUGAAUGGAGUUUAUCAUG [C5U A47C G59A C87U C93U], the “polymerase ribozyme fitness (log ratio)” value was -3.16.
To GGAUUUUCUCGCUCUAACAAAAAAGACAAAUCUGCCACACAGCUUGAGAGCAUCUUCGGAAGCAGAGGCGGCAGCCUUCGGUGGCGCGAUAGCGUCAACGUUCUCAACUAUGACACGCAAAACGCGUGCUCCGUUGAAUGGAGUUUAUCAUG [C5U A12C A40C U61A C95U] belongs -2.18; to GGAUGUUCUCGAUCUAACAAAAAAGACAAAUCUGCCACAAAGCUUGAGAGCAUCUUCGGAUGCAGAGGCGGCAGCCUUCGGUGGCGCGAGAGAGCCAACGUUCUCAACUAUGACAGGCAAAACGCGUGCUCCGUUGAAUGGCGUUUAUCAUG [C5G U90G C93A C116G A142C], ≤ -4.2; to GGAUUUUGUCGGUCUAACUAAAAAGACAAAUCUGCCACAAAGCUUGAGAGCAUCGUCGGAUGCAGAGGCGGCAGCCUUCGGUGGCGAGAUAGCGCGAACGUUCUCAACUAUGACACGCAAAACGCGUGCUCCGUUGAAUGGAGUUUCUCAUG [C5U C8G A12G A19U U55G C87A C96G A147C], ≤ -4.2.
To GGAUUUUCUCGAUCUAACAAAAAAGACAAAUCUGCCACAAAGCUUGAGAGCUUCUUCGGAUGCCGAGGCCGCAGCCUUCGGUGGAGCGAUAGCGCCAACGUUCUCAACUAUGACAGGCAAAUCGUGUGCUCCGUUGAAUGGAGUUUAUCGUG [C5U A52U A64C G70C C85A C116G A122U C125U A150G] belongs ≤ -4.2.
To GGAUUUUCUCGAUCUAACAAAAUCGACAAAUCUGCCACAAAGCUUAAGAGCAUCUUCGGAUGCAGAGGCGGCAGCCUUCGGUGGCGCGAUAGCGCUAACGUUCUCAACUAUGACACGCAAAACGCGUGCUCCGUUGUAUGGAGUUUAUCAUG [C5U A23U A24C G46A C96U A137U] belongs ≤ -4.2.
